Source: article PMC10344781 (Nature Biotechnology, 2023)
Numbering of substitutions follows the chain as printed. One block for each binder: values may come before it.

Molecular target: T1, single-chain mouse Trp2/H2-K^b (scpMHC), biotinylated (Mus musculus, H2-Kb, UniProt P01901;P01887, biotin on the biotinylation tag (BirA))
T1 construct: residues 180-188 of tyrosinase-related protein 2 (Trp2), mouse; linker, (G4S)3 or (G4S)4; beta2M; H2-K^b without the transmembrane domain; used as monomer, as streptavidin tetramer and on an SA chip; also called Trp2/H2-K^b tetramers; Trp2/H2-K^b monomer; source: Expi293, purified (Ni-NTA, Superdex 200)
Assay: flow cytometry on cells; yeast clones expressing TCRm scFv incubated with tenfold serially diluted target pMHC (monomer) for 1 h on ice, then streptavidin-AlexaFluor 647 for 15 min on ice
Details: one partner purified

- binding result: binds
B1: scFv2 displayed on yeast (scFv, V domains shown)
VH: VLLQQSGPELVKPGASVKIPCKASGYTFTDYEMDWVKQSHGKSLEWIGSINPNNGGTMYNQKFKGKATLTVDKSSSAAYMEVRSLTSEDTAVYYCARKPYYGMNAWFAYWGQGTLVTVSA
VL: IQVTQSSSSFSVSLGDRVTITCKASEDIYNRLAWYQQKPGNAPRLLISGATSLETGVPDRFSGSGSRKDYTLIITSLQTEDVATYYCQQYYALPLTFGAGTKLELK
notes: 25-D1.16 scFv (PDB 3CVH) changed at the nine randomised peptide-contact CDR residues; also called clone 2

- binding result: binds
B2: scFv19 displayed on yeast (scFv, V domains shown)
VH: B1 VH with E32Y, S49T, M58V, Y101S, M103H, N104P
VL: B1 VL with L93F
notes: 25-D1.16 scFv (PDB 3CVH) changed at the nine randomised peptide-contact CDR residues; also called clone 19

- binding result: binds
B3: scFv12 displayed on yeast (scFv, V domains shown)
VH: B1 VH with E32D, M58I, Y101R, M103F, N104H
VL: B1 VL with A92G, L93Y
notes: 25-D1.16 scFv (PDB 3CVH) changed at the nine randomised peptide-contact CDR residues; also called clone 12
